Where a chain is given by its changes, count along the chain named.

The results in this text go back to patent US20120244144A1 (University of Texas, published 2012).

Assay in all cases: SPR, mAb 1B7 immobilised ~1000 RU
For orientation: In SPR one partner is held on a chip, and binding of the other changes the refractive index at the surface.

In one assay the target is T1, PTx-S1-220 T156A (Bordetella pertussis strain Tohama I, UniProt P04977 36-255, T156A).
T1 sequence: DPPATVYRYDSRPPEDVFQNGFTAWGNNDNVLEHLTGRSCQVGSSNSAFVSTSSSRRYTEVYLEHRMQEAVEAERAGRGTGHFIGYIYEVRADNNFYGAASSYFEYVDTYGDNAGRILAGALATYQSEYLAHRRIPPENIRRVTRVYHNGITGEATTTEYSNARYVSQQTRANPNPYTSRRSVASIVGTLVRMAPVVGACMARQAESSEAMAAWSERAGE

Another assay deals with T2, PTx-S1-220 Y161A (Bordetella pertussis strain Tohama I, UniProt P04977 36-255, Y161A).
T2 sequence: T1 sequence with A155T, Y160A

The target of the next assay is T3, PTx-S1-220 E210A (Bordetella pertussis strain Tohama I, UniProt P04977 36-255, E210A).
T3 sequence: T1 sequence with A155T, E209A

In the next assay the target is T4, PTx-S1-220 E16A (Bordetella pertussis strain Tohama I, UniProt P04977 36-255, E16A).
T4 sequence: T1 sequence with E15A, A155T

A further assay deals with T5, PTx-S1-220 T81A (Bordetella pertussis strain Tohama I, UniProt P04977 36-255, T81A).
T5 sequence: T1 sequence with T80A, A155T

The target in the next assay is T6, PTx-S1-220 Y166A (Bordetella pertussis strain Tohama I, UniProt P04977 36-255, Y166A).
T6 sequence: T1 sequence with A155T, Y165A

Another assay has as its target T7, PTx-S1-220 R39A (Bordetella pertussis strain Tohama I, UniProt P04977 36-255, R39A).
T7 sequence: T1 sequence with R38A, A155T

The target in another assay is T8, PTx-S1-220 R79A (Bordetella pertussis strain Tohama I, UniProt P04977 36-255, R79A).
T8 sequence: T1 sequence with R78A, A155T

In a further assay the target is T9, PTx-S1-220 Y148A (Bordetella pertussis strain Tohama I, UniProt P04977 36-255, Y148A).
T9 sequence: T1 sequence with Y147A, A155T

A further assay deals with T10, PTx-S1-220 N150A (Bordetella pertussis strain Tohama I, UniProt P04977 36-255, N150A).
T10 sequence: T1 sequence with N149A, A155T

B1: monoclonal antibody 1B7 (antibody)
chain: DIQMTQSPALMSASPGEKVTMTCSASSSVSFMYWYQQKPRSSPKPWIYLTSNLPSGVPARFSGSGSGTSYSLTISSMEAEDAATYYCQQWSSHPPTFGSGTKLEIKRGGGGSGGGGSGGGGSGGGGSEVQLQQSGSELVRPGASVKLSCKASGYKFTSYWMHWVKQRPGQGLEWIGNIFPGSGSTNYDEKFNSKATLTVDTSSNTAYMQLSSLTSEDSAVYYCTRWLSGAYFDYWGQGTTLTVSSASGA
notes: also called mAb 1B7; 1B7 mAb
In the case of B1, the koff (usually the rate constant with which the complex falls apart) with PTx-S1-220 T156A is 0.0011 s⁻¹; with PTx-S1-220 Y161A, 0.0013 s⁻¹; in the assay with PTx-S1-220 E210A, 0.0016 s⁻¹; with PTx-S1-220 E16A, 0.0016 s⁻¹; in the assay with PTx-S1-220 T81A it was 0.0017 s⁻¹; with PTx-S1-220 Y166A, 0.0014 s⁻¹. The koff was found to be 0.003 s⁻¹ with PTx-S1-220 R39A, 0.025 s⁻¹ in the assay with PTx-S1-220 R79A, 0.029 s⁻¹ with PTx-S1-220 Y148A and 0.008 s⁻¹ with PTx-S1-220 N150A.
